Here are results for one molecule from patent US20220332804A1 (CSL INNOVATION, published 2022).

Numbering of substitutions follows the chain as printed.

Assay in all cases: SPR, antibody captured, C2 as analyte;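 also: biacore at 37 °C, anti-C2 mAbs held by immobilised goat anti-human IgG, C2 alanine or serine mutants injected, double-referenced sensorgrams fitted to a 1:1 kinetic or steady-state model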
On the technique in general: In SPR one partner is held on a chip, and binding of the other changes the refractive index at the surface.

For one experiment, the target named is T1, human C2 E476A (human, UniProt P06681 21-752).
T1 sequence: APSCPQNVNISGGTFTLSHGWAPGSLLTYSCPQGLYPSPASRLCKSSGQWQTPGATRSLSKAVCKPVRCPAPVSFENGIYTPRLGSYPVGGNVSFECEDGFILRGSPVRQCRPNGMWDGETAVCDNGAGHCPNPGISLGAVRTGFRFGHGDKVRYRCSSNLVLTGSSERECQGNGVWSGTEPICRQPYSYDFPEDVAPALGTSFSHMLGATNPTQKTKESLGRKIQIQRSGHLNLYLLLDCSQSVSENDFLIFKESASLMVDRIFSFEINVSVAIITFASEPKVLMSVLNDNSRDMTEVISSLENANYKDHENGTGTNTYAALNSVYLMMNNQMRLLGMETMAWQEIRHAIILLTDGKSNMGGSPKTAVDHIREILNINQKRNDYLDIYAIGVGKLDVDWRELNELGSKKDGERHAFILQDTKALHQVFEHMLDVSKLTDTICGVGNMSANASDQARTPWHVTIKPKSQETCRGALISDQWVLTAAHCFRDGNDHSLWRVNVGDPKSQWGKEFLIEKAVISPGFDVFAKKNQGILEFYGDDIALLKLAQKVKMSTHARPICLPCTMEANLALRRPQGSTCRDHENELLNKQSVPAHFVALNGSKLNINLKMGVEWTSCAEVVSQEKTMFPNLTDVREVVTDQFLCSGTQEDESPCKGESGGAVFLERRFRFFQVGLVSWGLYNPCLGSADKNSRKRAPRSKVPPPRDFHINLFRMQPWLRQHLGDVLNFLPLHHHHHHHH

A further experiment has as its target T2, human C2 G414A (human, UniProt P06681 21-752).
T2 sequence: T1 sequence with G394A, A456E

Another experiment has as its target T3, human C2 F270A (human, UniProt P06681 21-752).
T3 sequence: T1 sequence with F250A, A456E

Another experiment addresses T4, human C2 K415A (human, UniProt P06681 21-752).
T4 sequence: T1 sequence with K395A, A456E

B1: RF16-242 (antibody, human IgG4 S228P, lambda, V domains shown)
VH: EVQLLQSGAEVKKPGESLKISCKGSGYSFTSYWIGWVRQMPGKGLEWMGIIYPGDSDTRYSPSFQGQVTISADKSISTAYLQWSSLKASDTAMYYCARRGHYGDYFDYWGQGTLVTVSS
VL: SYELTQPPSVSVSPGQTARITCSGDALPKKYAYWYHQKSGQAPVLVIYEDRRRPSEIPERFSGSSSGTMATLTITGAQVEDEGVYFCYSRDRAGNQRVFGGGTQLTVLG
notes: pH-dependent anti-C2 antibody from a phage display library
As for B1, the dissociation constant Kd (usually the free concentration of one partner at which half of the binding sites on the other are occupied at equilibrium, for simple one-to-one binding) with human C2 E476A turned out to be 14 nM; with human C2 G414A, 4.2 nM; with human C2 F270A it was 104 nM; with human C2 K415A it was 4.1 nM.
